Experimental data from US20070185028A1, “Compositions and methods for treatment of protein misfolding and protein aggregation diseases” (priority 2004, published 2007).

What was measured:
Format in all cases: biochemical
ADH = ADH (Equus caballus, UniProt P00327); experiment: Chaperone assay, thermal aggregation of ADH at 50° C.; settings: 50:1 molar ratio of peptide:ADH, sixty minutes, 340 nm
Experimental: (§1) The chaperone activity of the peptides was measured as their ability to protect against the thermal aggregation of three chaperone target proteins βH crystallin, ADH and CS in chaperone assays performed at 50° C. (FIG. 19). A non-interactive αB crystallin sequence 111HGKHEERQDE120 was used as the negative control in the chaperone assays (FIG. 19). Based on near and far UVCD, the three target proteins unfolded in the order: CS>>>ADH>>βH crystallin when they were heated at 50° C. for sixty minutes (FIGS. 15 and 16). The thermal aggregation of βH crystallin, ADH and CS was measured as light scattering at λ=340 nm in the presence and absence of each peptide. The chaperone activity of each peptide was calculated as percent protection in which the aggregation of each target protein in the absence of any peptides was set at 0% protection (FIG. 19). The interactive peptides […] and 131LTITSSLSDGV141 were effective inhibitors of aggregation of all three chaperone target proteins.
(§2) A (top left): thermal aggregation of chaperone target proteins βH crystallin, ADH and CS in the absence of peptides was measured as light scattering at λ=340 nm. Each target protein was heated at 50° C. for sixty minutes in the absence or presence of one of the peptides. […] The chaperone activity of each peptide was calculated as percent protection in which the aggregation of each target protein in the absence of any peptides was set at 0% protection. The ability of the 73DRFSVNLDVKHFS85, 131LTITSSLSDGV141 and 111HGKHEERQDE120 to protect against the thermal aggregation of βH crystallin (B: top right), ADH (C: bottom left) and CS (D: bottom right) were tested in vitro (vertical bars). […] A 10:1 molar ratio of peptide:target protein was sufficient in conferring significant protection against the aggregation of CS by 73DRFSVNLDVKHFS85 and 131LTITSSLSDGV141.

βH crystallin = experiment: Chaperone assay, thermal aggregation of βH crystallin at 50° C.; settings: 50:1 molar ratio of peptide:βH crystallin, sixty minutes, 340 nm
Experimental: as §1, §2

amyloid beta (1-42) = amyloid beta (1-42) (Homo sapiens, UniProt P05067); experiment: Cu+++-induced aggregation of amyloid beta (1-42), light scattering 360 nm; settings: 100 mM Cu+++
Experimental: In vitro assays were also performed to measure the ability of the human αB crystallin derived peptides identified in Example 1 to inhibit aggregation of Cu^+++-induced amyloid beta (1-42) aggregation. Aggregation assays were performed using routine procedures, in the presence or absence of a synthesized peptide identified in Example 1, in the presence of 100 mM Cu^+++. Aggregation was measured spectrophotometrically as light scattering at a wavelength of 360 nm. Aggregated amyloid-beta was assigned a value of 100% aggregation and used to normalize aggregation in the presence of synthesize peptides.
Aggregation was measured spectrophotometrically as light scattering at a wavelength of 360 nm. Aggregated amyloid-beta was assigned a value of 100% aggregation and used to normalize aggregation in the presence of synthesize peptides. Aggregation was plotted as a bar graph with the standard error for duplicate experiments. The 1 st vertical bar is the scattering measured for aggregated amyloid-beta (100% aggregation) in the presence of 100 mM Cu^+++. The 2nd-4th vertical bars is the scattering from amyloid-beta in the presence of wild type recombinant human αB crystallin. The 5th-13th vertical bars are the scattering of amyloid-beta in the presence of the synthetic peptides, DRFSVNLDVKHFS or LTITSSLSDGV or HGKHEERQDE at selected concentrations. A prefix of 10× represents a 10:1 molar concentration of amyloid-beta to either wild type αB crystallin or its peptides. A prefix of 1× represents a 1:1 molar concentration of amyloid-beta to either wt αB crystallin or its peptides. A prefix of 0.1× represents a 1:10 molar concentration of amyloid-beta to either wt αB crystallin or its peptides.

CS = target: T1, CS (Sus scrofa, UniProt P00889); experiment: Chaperone assay, thermal aggregation of CS at 50° C.; settings: 10:1 molar ratio of peptide:CS, sixty minutes, 340 nm
T1 sequence (P00889 28-464): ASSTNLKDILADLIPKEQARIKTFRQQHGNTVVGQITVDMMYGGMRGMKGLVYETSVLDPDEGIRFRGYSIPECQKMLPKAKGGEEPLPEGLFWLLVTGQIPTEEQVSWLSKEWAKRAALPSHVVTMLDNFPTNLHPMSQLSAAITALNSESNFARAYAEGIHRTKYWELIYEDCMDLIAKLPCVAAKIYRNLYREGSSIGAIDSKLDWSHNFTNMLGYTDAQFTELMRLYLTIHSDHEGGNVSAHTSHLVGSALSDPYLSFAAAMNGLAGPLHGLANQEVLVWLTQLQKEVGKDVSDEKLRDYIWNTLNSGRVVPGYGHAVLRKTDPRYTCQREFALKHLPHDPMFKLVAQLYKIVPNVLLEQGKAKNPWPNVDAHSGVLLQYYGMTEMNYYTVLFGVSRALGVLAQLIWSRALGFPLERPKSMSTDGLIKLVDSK
Experimental: as §1
A (top left): thermal aggregation of chaperone target proteins βH crystallin, ADH and CS in the absence of peptides was measured as light scattering at λ=340 nm. […] The chaperone activity of each peptide was calculated as percent protection in which the aggregation of each target protein in the absence of any peptides was set at 0% protection. […]

[1] = 1:1 and 1:10 molar ratio of amyloid-beta to peptide
[2] = 10:1 molar ratio of amyloid-beta to peptide

ADH, sequence (P00327 whole entry): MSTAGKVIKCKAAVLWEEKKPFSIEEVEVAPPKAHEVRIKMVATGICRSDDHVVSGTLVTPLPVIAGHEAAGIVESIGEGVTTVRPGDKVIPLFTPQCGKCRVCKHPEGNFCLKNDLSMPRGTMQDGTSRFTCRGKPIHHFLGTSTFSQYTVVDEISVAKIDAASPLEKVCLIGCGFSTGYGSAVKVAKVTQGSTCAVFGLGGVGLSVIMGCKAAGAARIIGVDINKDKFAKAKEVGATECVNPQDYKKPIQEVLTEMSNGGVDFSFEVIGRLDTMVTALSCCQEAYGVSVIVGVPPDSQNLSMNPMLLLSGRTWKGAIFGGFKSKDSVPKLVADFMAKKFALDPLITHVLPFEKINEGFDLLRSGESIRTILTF

| Sequence | percent protection against thermal aggregation of ADH (ADH) | percent protection against thermal aggregation of βH crystallin (βH crystallin) | prevention of Cu+++-induced aggregation of amyloid-beta (amyloid beta (1-42); [1]) | prevention of Cu+++-induced aggregation of amyloid-beta (amyloid beta (1-42); [2]) | percent protection against thermal aggregation of CS (CS) |
| --- | --- | --- | --- | --- | --- |
| DRFSVNLDVKHFS | approximately 30% | approximately 30% | equally effective | less effective | – |
| HGKHEERQDE | No protection | No protection | equally effective | less effective | partial protection |
